Consider five molecules from paper PMC4641155 (Molecular Imaging and Biology, 2015).

Several values for one entry are separate records, joined by “and”; a condition that tells them apart may be missing. Equal entries are not always repeated. Where two headings read alike, the source gives them in different places.

The conditions of data set [1]: cited from earlier work.
For data set [2], the system named is COLO205 tumors. Nature of the data set: Ex vivo histology of tumors: cleaved caspase-3 and TUNEL. Particulars: irinotecan-treated tumors; three whole sections, ×400; n = 6; mean ± SEM. It counts as in vivo, nude mice.
A further data set relates to COLO205 cells. Nature of the data set: Muse Annexin V & Dead Cell and Caspase 3/7 assays in irinotecan-treated cells. It is filed as cell-based, human.
In data set [3] the test system is COLO205 tumors.
In another data set the test system is caspase-3/7. The settings on record: cited from earlier work. The source says: Molecular imaging of cell death has gained interest in oncology for monitoring tumor response to cancer therapy. Radiolabeled annexin-V was the first cell death-specific probe to be evaluated clinically. The exposure of membrane aminophospholipids such as PS and PE in the extracellular milieu provides surrogate markers for detecting cell death. PE presents one of the most abundant targets in the membrane bilayer, only preceded by phosphatidylcholine. […] Other ...

Data set [4] can be described thus: Projected human organ absorbed doses and effective dose (OLINDA/EXM). Particulars: OLINDA/EXM v1.1, adult male model, 2-h voiding, from mouse data. It is filed as in vivo, human (extrapolated from mouse). The source says: (§1) Volumes of interest (VOIs) were manually drawn on the μSPECT-CT images using PMOD v3.3 (PMOD Technologies, Switzerland) to delineate the regions with distinct SPECT time-activity pattern: heart, liver, kidney, and urinary bladder, as well as whole-body. The average organ activity per volume was obtained from the co-registered μSPECT images and the non-decay corrected time activity curves (TACs) were extracted for each target organ. In order to relate the scanner units (counts/pixel) to radioactivity concentration (kilobecquerel per cubic centimeter), a scanner calibration factor was estimated by scanning a syringe with a known concentration of Tc-99m. TACs for each organ, as well as the TACs representing the activity in the remainder of the body, were fitted by a single exponential decaying function, which was then integrated to obtain the total number of disintegrations (residence time) within these regions. In order to predict human dosimetry using animal data, interspecies extrapolation is necessary. Thus, the residence times (R) were scaled to human values according to the following formula [21]: R/gorganmouse⋅kgTBweightmouse⋅gorgan/kgTBweighthuman=Rhuman
(§2) The human organ and body weight values from the standard adult male phantom taken into account are implemented in the internal dosimetry software (OLINDA/EXM v1.1) and are assumed to be constant across individuals. The body weight and organ masses for the individual mice were obtained post-mortem. For the bladder model, the fraction leaving the body via the urinary excretion system (f) and the biological half-life of the excretion (t1/2) were estimated by fitting a first-order linear system to the sum of activity in the bladder and the activity that had been excreted (calculated as total injected activity minus total body activity): y=f1−expln2/t1/2t
Projected human absorbed doses to various organs and the effective doses (ED) were then computed using the aforementioned dosimetry software (weighting factors from International Commission on Radiological Protection 60), with the human residence times as input, using the standard adult male model and the dynamic voiding bladder model (2-h voiding interval).

Data set [5] is described as follows: Bladder model fit of urinary excretion. It counts as in vivo, CD1−/− nude female mice. The settings on record: first-order fit of bladder plus excreted activity.
From the text: as §2

Data set [6] is described as follows: Human residence time estimates scaled from mouse μSPECT time-activity curves. It is filed as in vivo, human (extrapolated from mouse). Particulars: scaled from mouse μSPECT TACs, n = 3 non-purified, n = 6 purified.
From the text: as §1, §2

The nature of data set [7]: In vivo tumor uptake by μSPECT-CT in COLO205 tumor-bearing mice. Further details: species or system nude mice. The settings on record: female, nude, mouse, bone marrow (lumbar vertebrae and sacrum), iv, 37 MBq, total radioactivity, lumbar vertebrae and sacrum, μSPECT 4 h p.i., 37 MBq i.v. The method, then: Irinotecan was administered by intra-peritoneal (i.p.) injection (80 mg/kg) three times in 1 week every other day (n = 3).

Data set [8] can be described thus: Dynamic/static whole-body μSPECT-CT biodistribution in healthy mice. The settings on record: female, CD1−/− nude, mouse, kidney, iv, 37 MBq, total radioactivity, 37 MBq i.v., 4 h p.i., mean ± SEM, n = 3 non-purified, n = 6 purified, read-out: renal activity (renal excretion). It is filed as in vivo.

For the molecule “[^99mTc]HYNIC-annexin V: radiolabeled human recombinant annexin V, apoptosis imaging agent”, the mean effective dose in data set [1] (in vivo) was 0.011 mSv/MBq.
As for `CCc1c2c(nc3ccc(OC(=O)N4CCC(N5CCCCC5)CC4)cc13)-c1cc3c(c(=O)n1C2)COC(=O)[C@]3(O)CC` [irinotecan], in the data set with COLO205 tumors [2], the “number of CC3-positive cells” value is listed as 9.5 ± 1.1 and the “number of TUNEL-positive cells” value is 10.5 ± 1.6. Besides, in the data set with COLO205 cells (irinotecan 0.43, 4.3, 43 μM, 40 h, Muse assays), the “level of cell necrosis” value is on record as “did not result in an increased level of cell necrosis”. Moreover, in the data set on COLO205 cells (irinotecan treatment 40 h, annexin-V binding and effector caspase activation), the apoptosis levels entry was “increase in apoptosis levels”. For the same molecule, the “overall toxicity with respect to body weight loss” value in the data set on COLO205 tumors [3] (80 mg/kg irinotecan, data not shown) is “No overall toxicity”. Also, the “BLI signal change after treatment” value with COLO205 tumors [3] (bioluminescence imaging after vs before treatment, irinotecan 80 mg/kg i.p.) was found to be 0.75 ± 0.28. The molecule also had a tumor growth inhibition with COLO205 tumors [3] (day 5, irinotecan 80 mg/kg i.p. three times in 1 week, vs vehicle) of 34.4 ± 6.9%.
Consider `O=C1C(=O)N(Cc2cn(CC[18F])nn2)c2ccc(S(=O)(=O)N3CCCC3COc3ccc(F)cc3F)cc21` (stereo not drawn) [[^18F]ICMT11], for which, in the data set with caspase-3/7, the “binding affinity for caspase-3/7” value is “nanomolar”. Besides, in [1], the mean effective dose is 0.025 mSv/MBq.
Regarding `CC(C)[C@@H]1NC(=O)[C@H](Cc2ccccc2)NC(=O)[C@@H]2NC(=O)[C@H](Cc3ccccc3)NC(=O)[C@@H]3CCCN3C(=O)CNC(=O)[C@H](Cc3ccccc3)NC(=O)[C@@H]3CNCCCC[C@@H](C(=O)O)NC(=O)[C@@H]4NC(=O)[C@H](CC(N)=O)NC(=O)CNC(=O)[C@H]([C@@H](O)C(=O)O)NC(=O)[C@H](CSC[C@@H](NC(=O)[C@H](CCC(N)=O)NC(=O)[C@H](CCCCNC(=O)c5ccc(NN)nc5)NC(=O)[C@@H](N)CS[C@H]4C)C(=O)N[C@@H](CS[C@H]2C)C(=O)N3)NC1=O` [non-purified [^99mTc]duramycin] [metal not drawn], in data set [4], the “Mean human absorbed dose, total body” value is 2.52 × 10^−3 mGy/MBq; the “Mean human organ absorbed dose, LLI wall” value is given as 3.01 × 10^−3 mGy/MBq; the “Mean human organ absorbed dose, ULI wall” value is recorded as 3.10 × 10^−3 mGy/MBq; the “Mean human organ absorbed dose, adrenals” value is 3.90 × 10^−3 mGy/MBq. Further, in data set [4], the “Mean human organ absorbed dose, brain” value is listed as 1.54 × 10^−3 mGy/MBq; the “Mean human organ absorbed dose, breasts” value was 1.51 × 10^−3 mGy/MBq; the “Mean human organ absorbed dose, gallbladder wall” value was 5.38 × 10^−3 mGy/MBq; the “Mean human organ absorbed dose, heart wall” value is recorded as 3.12 × 10^−3 mGy/MBq. Moreover, in [4], the “Mean human organ absorbed dose, kidneys” value is 8.45 × 10^−3 mGy/MBq; the “Mean human organ absorbed dose, liver” value is 1.27 × 10^−2 ± 5.97 × 10^−3 mGy/MBq and 1.27 × 10 ^−2 mGy/MBq; the “Mean human organ absorbed dose, lungs” value was 2.52 × 10^−3 mGy/MBq; the “Mean human organ absorbed dose, muscle” value was 2.12 × 10^−3 mGy/MBq. Besides, in data set [4], the “Mean human organ absorbed dose, osteogenic cells” value is 5.51 × 10^−3 mGy/MBq; the “Mean human organ absorbed dose, ovaries” value was 3.15 × 10^−3 mGy/MBq; the “Mean human organ absorbed dose, pancreas” value is given as 3.79 × 10^−3 mGy/MBq; the “Mean human organ absorbed dose, red marrow” value is recorded as 2.16 × 10^−3 mGy/MBq. In data set [4], the “Mean human organ absorbed dose, skin” value is 1.34 × 10^−3 mGy/MBq; the “Mean human organ absorbed dose, small intestine” value is 3.01 × 10^−3 mGy/MBq; the “Mean human organ absorbed dose, spleen” value is reported as 2.48 × 10^−3 mGy/MBq; the “Mean human organ absorbed dose, stomach wall” value is on record as 2.63 × 10^−3 mGy/MBq. For the same molecule, in [4], the “Mean human organ absorbed dose, testes” value was 2.11 × 10^−3 mGy/MBq; the “Mean human organ absorbed dose, thymus” value was 2.03 × 10^−3 mGy/MBq; the “Mean human organ absorbed dose, thyroid” value was 1.87 × 10^−3 mGy/MBq; the “Mean human organ absorbed dose, urinary bladder wall” value was 1.66 × 10^−2 ± 4.55 × 10^−3 mGy/MBq and 1.66 × 10 ^−2 mGy/MBq. Moreover, the “Mean human organ absorbed dose, uterus” value in data set [4] is given as 4.05 × 10^−3 mGy/MBq. In data set [5], the “f, mean fraction leaving the body via the urinary excretion system” value was 0.519 and the “t 1/2, mean biological half-life of the excretion” value is 2.950 h. In [6], the “Mean human residence time, heart contents” value is 0.0244 h; the “Mean human residence time, kidneys” value was 0.13 h; the “Mean human residence time, liver” value was 1.02 h; the “Mean human residence time, remaining body” value is 3.41 h. In addition, the “Mean human residence time, urinary bladder contents” value in data set [6] was 0.369 h.
Consider `CC(C)[C@@H]1NC(=O)[C@H](Cc2ccccc2)NC(=O)[C@@H]2NC(=O)[C@H](Cc3ccccc3)NC(=O)[C@@H]3CCCN3C(=O)CNC(=O)[C@H](Cc3ccccc3)NC(=O)[C@@H]3CNCCCC[C@@H](C(=O)O)NC(=O)[C@@H]4NC(=O)[C@H](CC(N)=O)NC(=O)CNC(=O)[C@H]([C@@H](O)C(=O)O)NC(=O)[C@H](CSC[C@@H](NC(=O)[C@H](CCC(N)=O)NC(=O)[C@H](CCCCNC(=O)c5ccc(NN)nc5)NC(=O)[C@@H](N)CS[C@H]4C)C(=O)N[C@@H](CS[C@H]2C)C(=O)N3)NC1=O` [purified [^99mTc]duramycin, metal not drawn], for which the SUV at 4 h amounted to 0.12 ± 0.02 SUV in [7] (irinotecan-treated mice) and 0.11 ± 0.01 SUV in data set [7] (vehicle-treated mice). In data set [8], the tissue uptake per volume at 4 h worked out at 6.82 ± 0.41 %ID/mL.
